Patent US20170336415A1
Values belong to the substance of their own block, whether it stands above or below them.

Assays:
[1] = molecular target: fucosylated haptoglobin (UniProt P00738); assay: sandwich ELISA as in Example 4, captured fHP, biotin-labeled AML, no urea
[2] = molecular target: fucosylated haptoglobin (UniProt P00738); assay: sandwich ELISA, 5 M urea minus no urea
[3] = molecular target: fucosylated haptoglobin (UniProt P00738); assay: sandwich ELISA as in Example 4, captured fHP, biotin-labeled AML, 5 M urea
[4] = molecular target: fucosylated haptoglobin (UniProt P00738); assay: sandwich ELISA, 5 M urea against no urea
[5] = molecular target: fucosylated haptoglobin (UniProt P00738); assay: sandwich ELISA, fHP 200 ng/mL captured by anti-haptoglobin antibody, biotin-labeled lectin 1 µg/mL, 5 M urea
[6] = molecular target: fucosylated haptoglobin (UniProt P00738); assay: sandwich ELISA, fHP 200 ng/mL captured by anti-haptoglobin antibody, biotin-labeled lectin 1 µg/mL, no urea
[7] = molecular target: fucosylated haptoglobin (UniProt P00738); assay: sandwich ELISA as in Example 4, captured fHP, biotin-labeled NSL, no urea
[8] = molecular target: fucosylated haptoglobin (UniProt P00738); assay: sandwich ELISA as in Example 4, captured fHP, biotin-labeled NSL, 5 M urea
[9] = molecular target: fucosylated haptoglobin (UniProt P00738); assay: magnetic bead assay, 5 M urea minus no urea
[10] = molecular target: fucosylated haptoglobin (UniProt P00738); assay: magnetic bead assay, signal with fHP divided by signal without fHP, no urea
[11] = molecular target: fucosylated haptoglobin (UniProt P00738); assay: magnetic bead assay: fHP 0.45 µg/mL mixed with recombinant lectin 5 µg/mL, captured on anti-haptoglobin antibody beads, HRP anti-FLAG detection, no urea
[12] = molecular target: fucosylated haptoglobin (UniProt P00738); assay: magnetic bead assay, 5 M urea against no urea
[13] = molecular target: fucosylated haptoglobin (UniProt P00738); assay: magnetic bead assay, signal with fHP divided by signal without fHP, 5 M urea
[14] = molecular target: fucosylated haptoglobin (UniProt P00738); assay: magnetic bead assay: fHP 0.45 µg/mL mixed with recombinant lectin 5 µg/mL, captured on anti-haptoglobin antibody beads, HRP anti-FLAG detection, 5 M urea
[15] = molecular target: fucosylated haptoglobin (UniProt P00738); assay: sandwich ELISA, wash with 1.2 M thiourea minus wash without
[16] = molecular target: fucosylated haptoglobin (UniProt P00738); assay: direct adsorption ELISA, 5 M urea against no urea
[17] = molecular target: α-fetoprotein L3 (UniProt P02771); assay: direct adsorption ELISA, 5 M urea against no urea
α-fetoprotein L3, sequence (P02771 19-609 limits assumed): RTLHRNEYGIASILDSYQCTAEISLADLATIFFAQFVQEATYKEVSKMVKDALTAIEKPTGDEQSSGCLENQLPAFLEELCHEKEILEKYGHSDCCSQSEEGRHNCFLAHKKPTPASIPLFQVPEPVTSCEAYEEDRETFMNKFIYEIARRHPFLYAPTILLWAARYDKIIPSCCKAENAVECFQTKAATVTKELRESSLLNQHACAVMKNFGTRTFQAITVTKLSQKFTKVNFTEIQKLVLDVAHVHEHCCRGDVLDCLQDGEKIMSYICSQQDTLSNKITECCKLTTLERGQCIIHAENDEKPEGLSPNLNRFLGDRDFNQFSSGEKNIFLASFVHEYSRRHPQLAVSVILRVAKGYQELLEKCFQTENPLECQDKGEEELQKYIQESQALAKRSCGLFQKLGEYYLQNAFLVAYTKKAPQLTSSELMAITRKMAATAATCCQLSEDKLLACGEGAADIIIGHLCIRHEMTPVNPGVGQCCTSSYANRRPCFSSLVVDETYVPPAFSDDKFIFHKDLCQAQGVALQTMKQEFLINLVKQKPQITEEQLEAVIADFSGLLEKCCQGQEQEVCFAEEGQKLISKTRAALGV

[18] = molecular target: α-fetoprotein L3 (UniProt P02771); assay: direct adsorption ELISA, AFP-L3 immobilized, biotin-labeled PhoSL 1 µg/mL, no urea
[19] = molecular target: fucosylated haptoglobin (UniProt P00738); assay: direct adsorption ELISA, fHP immobilized, biotin-labeled PhoSL, 1.2 M thiourea
[20] = molecular target: fucosylated haptoglobin (UniProt P00738); assay: direct adsorption ELISA, 1.2 M thiourea against no thiourea
[21] = molecular target: α-fetoprotein L3 (UniProt P02771); assay: as above
[22] = molecular target: α-fetoprotein L3 (UniProt P02771); assay: direct adsorption ELISA, AFP-L3 immobilized, biotin-labeled PhoSL, no thiourea
[23] = molecular target: fucosylated haptoglobin (UniProt P00738); assay: sandwich ELISA, wash with 5 M urea against wash without
[24] = molecular target: fucosylated haptoglobin (UniProt P00738); assay: sandwich ELISA as in Example 4 (biotin-labeled PhoSL), captured fHP washed with detergent liquid with 1.2 M thiourea, none in lectin solution
[25] = molecular target: fucosylated haptoglobin (UniProt P00738); assay: direct adsorption ELISA, fHP immobilized, biotin-labeled PhoSL, no thiourea
[26] = molecular target: fucosylated haptoglobin (UniProt P00738); assay: sandwich ELISA as in Example 4, thiourea 0 to 1.5 M
[27] = molecular target: fucosylated haptoglobin (UniProt P00738); assay: sandwich ELISA as in Example 4 (biotin-labeled PhoSL), captured fHP washed with detergent liquid without urea or thiourea
[28] = molecular target: fucosylated haptoglobin (UniProt P00738); assay: direct adsorption ELISA, fHP immobilized, biotin-labeled PhoSL 1 µg/mL, 5 M urea
[29] = molecular target: fucosylated haptoglobin (UniProt P00738); assay: direct adsorption ELISA, fHP immobilized, biotin-labeled PhoSL 1 µg/mL, no urea
[30] = molecular target: fucosylated haptoglobin (UniProt P00738); assay: direct adsorption ELISA, 1.2 M thiourea minus no thiourea
[31] = molecular target: α-fetoprotein L3 (UniProt P02771); assay: as above
[32] = molecular target: α-fetoprotein L3 (UniProt P02771); assay: direct adsorption ELISA, AFP-L3 immobilized, biotin-labeled PhoSL, 1.2 M thiourea
[33] = molecular target: fucosylated haptoglobin (UniProt P00738); assay: sandwich ELISA as in Example 4 (biotin-labeled PhoSL), captured fHP washed with detergent liquid with 5 M urea, no urea in lectin solution
[34] = molecular target: fucosylated haptoglobin (UniProt P00738); assay: sandwich ELISA, wash with 1.2 M thiourea against wash without
[35] = molecular target: fucosylated haptoglobin (UniProt P00738); assay: sandwich ELISA as in Example 4, fHP 50 ng/mL, urea 0 to 9 M
[36] = molecular target: fucosylated haptoglobin (UniProt P00738); assay: sandwich ELISA, wash with 5 M urea minus wash without
[37] = molecular target: fucosylated haptoglobin (UniProt P00738); assay: direct adsorption ELISA, 5 M urea minus no urea
[38] = molecular target: α-fetoprotein L3 (UniProt P02771); assay: direct adsorption ELISA, 5 M urea minus no urea
[39] = molecular target: α-fetoprotein L3 (UniProt P02771); assay: direct adsorption ELISA, AFP-L3 immobilized, biotin-labeled PhoSL 1 µg/mL, 5 M urea
[40] = molecular target: fucosylated haptoglobin (UniProt P00738); assay: sandwich ELISA as in Example 4, captured fHP, biotin-labeled PTL, 5 M urea
[41] = molecular target: fucosylated haptoglobin (UniProt P00738); assay: sandwich ELISA as in Example 4, captured fHP, biotin-labeled PTL, no urea

fucosylated haptoglobin, sequence (P00738 19-406 limits assumed): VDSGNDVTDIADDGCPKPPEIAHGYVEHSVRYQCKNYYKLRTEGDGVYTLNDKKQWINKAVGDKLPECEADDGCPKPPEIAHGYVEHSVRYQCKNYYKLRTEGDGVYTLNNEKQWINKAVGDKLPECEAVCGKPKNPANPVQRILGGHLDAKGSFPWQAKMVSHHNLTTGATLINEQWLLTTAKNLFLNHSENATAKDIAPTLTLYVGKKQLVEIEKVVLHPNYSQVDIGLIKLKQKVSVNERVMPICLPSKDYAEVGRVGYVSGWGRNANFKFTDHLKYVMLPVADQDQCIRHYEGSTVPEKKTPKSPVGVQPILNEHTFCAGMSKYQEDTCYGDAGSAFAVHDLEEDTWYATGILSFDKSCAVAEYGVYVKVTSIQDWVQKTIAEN

Reaction value (S - N)urea 0M (absorbance (450 nm - 630 nm)) [1]: 0.027 | Increased amount of signal (absorbance (450 nm - 630 nm)) [2]: 0.521 | Reaction value (S - N)urea 5M (absorbance (450 nm - 630 nm)) [3]: 0.548 | Increased rate of signal [4]: 20.3 fold
Substance: Amanita muscaria lectin (AML), biotin-labeled

Reaction value (S - N)urea 5M (absorbance (450 nm - 630 nm)) [5]: 0.774 | Increased amount of signal (absorbance (450 nm - 630 nm)) [2]: -0.103 | Increased rate of signal [4]: 0.88 fold | Reaction value (S - N)urea 0M (absorbance (450 nm - 630 nm)) [6]: 0.877
Substance: Biotin-labeled Aleuria aurantia lectin (from UniProt P18891 2-313)

Reaction value (S - N)urea 0M (absorbance (450 nm - 630 nm)) [7]: 0.423 | Reaction value (S - N)urea 5M (absorbance (450 nm - 630 nm)) [8]: 1.34 | Increased amount of signal (absorbance (450 nm - 630 nm)) [2]: 0.922 | Increased rate of signal [4]: 3.18 fold
Substance: Naematoloma sublateritium lectin (NSL), biotin-labeled

Reaction value (S - N)urea 5M (absorbance (450 nm - 630 nm)) [5]: 0.214 | Increased amount of signal (absorbance (450 nm - 630 nm)) [2]: 0.052 | Increased rate of signal [4]: 1.32 fold | Reaction value (S - N)urea 0M (absorbance (450 nm - 630 nm)) [6]: 0.162
Substance: PhoSL peptide, biotin-labeled

Increased amount of signal (absorbance (450 nm - 630 nm)) [9]: 0.253 | Reaction value (S/N)urea 0M [10]: 6.83 | Reaction value (S - N)urea 0M (absorbance (450 nm - 630 nm)) [11]: 0.455 | Increased rate of signal [12]: 1.56 fold | Reaction value (S/N)urea 5M [13]: 26.3 | Reaction value (S - N)urea 5M (absorbance (450 nm - 630 nm)) [14]: 0.708
Substance: PhoSL recombinant lectin

Increased amount of signal (absorbance (450 nm - 630 nm)) [15]: 0.364 | Increased rate of signal [16]: 2.86 fold | Increased rate of signal [17]: 16.5 fold | Reaction value (S - N)urea 0M (absorbance (450 nm - 630 nm)) [18]: 0.008 | Reaction value (S - N)thiourea 1.2M (absorbance (450 nm - 630 nm)) [19]: 1.04 | Reaction value (S - N)urea 5M (absorbance (450 nm - 630 nm)) [5]: 0.796 | Increased rate of signal [20]: 2.89 fold | Increased rate of signal [21]: 39 fold | Reaction value (S - N)thiourea 0M (absorbance (450 nm - 630 nm)) [22]: 0.003 | Increased rate of signal [23]: 1.84 fold | Increased amount of signal (absorbance (450 nm - 630 nm)) [2]: 0.531 | Reaction value (S - N)thiourea 1.2M (absorbance (450 nm - 630 nm)) [24]: 0.909 | Reaction value (S - N)thiourea 0M (absorbance (450 nm - 630 nm)) [25]: 0.36 | increased rate of the signals against no thiourea [26]: 1.2 to 4.1 times | Reaction value (S - N)0M (absorbance (450 nm - 630 nm)) [27]: 0.545 | Reaction value (S - N)urea 5M (absorbance (450 nm - 630 nm)) [28]: 0.724 | Reaction value (S - N)urea 0M (absorbance (450 nm - 630 nm)) [29]: 0.253 | Increased amount of signal (absorbance (450 nm - 630 nm)) [30]: 0.681 | Increased amount of signal (absorbance (450 nm - 630 nm)) [31]: 0.114 | Reaction value (S - N)thiourea 1.2M (absorbance (450 nm - 630 nm)) [32]: 0.117 | Reaction value (S - N)urea 5M (absorbance (450 nm - 630 nm)) [33]: 1 | Increased rate of signal [4]: 3 fold | Increased rate of signal [34]: 1.67 fold | increased rate of the signals against no urea [35]: 1.2 to 2.8 times | Increased amount of signal (absorbance (450 nm - 630 nm)) [36]: 0.457 | Reaction value (S - N)urea 0M (absorbance (450 nm - 630 nm)) [6]: 0.265 | Increased amount of signal (absorbance (450 nm - 630 nm)) [37]: 0.471 | Increased amount of signal (absorbance (450 nm - 630 nm)) [38]: 0.124 | Reaction value (S - N)urea 5M (absorbance (450 nm - 630 nm)) [39]: 0.132
Substance: Pholiota squarrosa lectin (PhoSL), biotin-labeled

Increased amount of signal (absorbance (450 nm - 630 nm)) [2]: 0.743 | Reaction value (S - N)urea 5M (absorbance (450 nm - 630 nm)) [40]: 1.28 | Reaction value (S - N)urea 0M (absorbance (450 nm - 630 nm)) [41]: 0.542 | Increased rate of signal [4]: 2.37 fold
Substance: Pholiota terrestris lectin (PTL), biotin-labeled

Reaction value (S - N)urea 5M (absorbance (450 nm - 630 nm)) [5]: 0.863 | Increased amount of signal (absorbance (450 nm - 630 nm)) [2]: 0.433 | Increased rate of signal [4]: 2.01 fold | Reaction value (S - N)urea 0M (absorbance (450 nm - 630 nm)) [6]: 0.43
Substance: Stropharia rugosoannulata lectin (SRL), biotin-labeled
